These results are taken from PMC3178605, “No Interaction of Barrier-to-Autointegration Factor (BAF) with HIV-1 MA, Cone-Rod Homeobox (Crx) or MAN1-C in Absence of DNA” (PLoS ONE, 2011).

Where no end group is shown, it is not given here.

The target of series [1] is T1, Barrier-to-autointegration factor (BAF), human, unlabeled (human, UniProt O75531 1-89).
T1 construct: Barrier-to-autointegration factor (BAF/BANF1), human; Used unlabeled in the NMR experiments; also called BANF1; BAF2 (the dimer); source: cloned and purified as described [12]
T1 sequence (looked up): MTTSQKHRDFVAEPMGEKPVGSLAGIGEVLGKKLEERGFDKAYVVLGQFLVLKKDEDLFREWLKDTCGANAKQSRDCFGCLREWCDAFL
As to the kind of experiment: NMR titration; 1H-15N HSQC of 50 µM 15N-labeled LEM domain without and with 200 µM unlabeled BAF2; 25 mM potassium phosphate pH 6.5, 200 mM NaCl, 2 mM 2-mercaptoethanol, 27°C. The conditions noted are these: both partners purified.

Series [2] concerns the target T2, MAN1-C (UniProt Q9Y2U8 650-911).
T2 sequence: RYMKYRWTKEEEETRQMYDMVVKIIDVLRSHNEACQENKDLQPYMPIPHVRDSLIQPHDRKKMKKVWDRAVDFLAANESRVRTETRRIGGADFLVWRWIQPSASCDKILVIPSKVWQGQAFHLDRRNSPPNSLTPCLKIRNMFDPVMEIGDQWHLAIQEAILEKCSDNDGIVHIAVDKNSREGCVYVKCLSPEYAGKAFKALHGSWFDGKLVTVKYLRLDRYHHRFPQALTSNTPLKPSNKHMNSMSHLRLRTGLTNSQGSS
As to the kind of experiment: NMR (1H-15N HSQC); 150 mM NaCl?; NMR: 25 mM potassium phosphate pH 6.5, 2 mM 2-mercaptoethanol, 95% H2O/5% D2O, 200 mM NaCl (Crx samples) or 150 mM NaCl (MAN1-C samples); salt for MA and temperature not given. The pull-down used undefined sonicated salmon sperm DNA (not listed). To be noted: protein: recombinant; tags: His6-thioredoxin removed by thrombin; blunt.

B1: LEM domain of Emerin (residues 1-47), 15N-labeled (domain or fragment, UniProt P50402 1-47, looked up)
chain: MDNYADLSDTELTTLLRRYNIPHGPVVGSTRRLYEKKIFEYETQRRR
modifications: also: 15N-labeled
notes: Emerin, LEM domain, residues 1-47; Uniformly 15N-labeled for NMR; also called Emerin LEM domain; source: cloned and purified as described [12]
As for B1, the binding result in series [1] is reported as “binds”.

B2: LEM domain of MAN1 (residues 1-52), 15N-labeled (domain or fragment, UniProt Q9Y2U8 1-52, looked up)
chain: MAAAAASAPQQLSDEELFSQLRRYGLSPGPVTESTRPVYLKKLKKLREEEQQ
modifications: also: 15N-labeled
notes: MAN1 (inner nuclear membrane protein), LEM domain, residues 1-52; Uniformly 15N-labeled for NMR; also called MAN1 LEM domain; MAN-1 LEM domain; source: cloned and purified as described [12]
Take B2: the binding result in series [1] was “binds”.

B3: 16 mer DNA duplex (dsDNA)
DNA 1: CCAGCACAAACACCTG
DNA 2: CAGGTGTTTGTGCTGG
B3: the binding result in series [2] is “binds”.
